Test results as given in paper doi:10.1101/2021.06.16.448687 (bioRxiv, 2021).

Molecular target: the molecule itself
Test: AUC

B1: stabilized H176C form of the soluble human LLT1 ectodomain (Gln72-Val191), glycosylated (domain or fragment, UniProt Q9UHP7 72-191, looked up)
chain: QAACPESWIGFQRKCFYFSDDTKNWTSSQRFCDSQDADLAQVESFQELNFLLRYKGPSDHWIGLSREQGQPWKWINGTEWTRQFPILGAGECAYLNDKGASSARCYTERKWICSKSDIHV
modifications: GlcNAc2Man5 N-glycans
stoichiometry N: 2
